Measurements: patent publication US20140017242A1, “ANTI-BRADYKININ B2 RECEPTOR (BKB2R) MONOCLONAL ANTIBODY” (Diamedica, Inc., priority 2010, published 2014)

What was measured:
[1] = system: BxPC-3; test: MTT Cell Proliferation Assay, BxPC-3; format: cell-based, human; conditions: 120 hours of exposure
Text: (§1) This Example describes characterization of the cytotoxic activity of herein described anti-BKB2R monoclonal antibodies against a panel of cancer cell lines. BxPC-3 is a human adenocarcinoma cell line originally isolated from the pancreas (pancreatic cancer) (ATCC # CRL-1687; Tan et al., Cancer Invest. 4: 15-23, 1986. PubMed: 3754176). MV-4-11 is a human biphenotypic B myelomonocytic leukemia (mixed-lineage leukemia, MLL-AF4) cell line originally isolated from the peripheral blood (ATCC # CRL-959; Lange et al., Blood 70: 192-199, 1987. PubMed: 3496132). Hep G2 is a human hepatocellular carcinoma cell line isolated from the liver (liver cancer) (ATCC # HB-8065; Aden et al., Nature 282: 615-616, 1979. PubMed: 233137). RS4;11 is a human acute lymphoblastic leukemia (mixed-lineage leukemia, MLL-AF4) cell line isolated from the bone marrow (ATTC # CRL-1873) Stong et al., Blood 65: 21-31, 1985. PubMed: 3917311). HT-29 is a human colorectal adenocarcinoma (ATTC # HTB-38) cell line isolated from the colon (colon cancer). Fogh et al., J. Natl. Cancer Inst. 58: 209-214, 1977. PubMed: 833871). NUGC-4 is a human stomach carcinoma isolated from the stomach paragastiric lymph node (JCRB # JCRB0834; Akiyama et al., Jpn. J. Surg., 18: 438-446, 1988). […]
(§2) The anti-proliferative activity of test compounds against the indicated cell lines was evaluated in vitro using the ATCC's MTT Cell Proliferation Assay (Catalog No. 30-1010K). After the 120 hour incubation with drug (e.g., anti-BKB2R mAb or cisplatin), cell proliferation was measured by addition of MTT reagent to each well and incubation for an additional 4 hrs. […] Optical absorbance (570 nm) of the test wells was measured and then quantitated relative to control wells that received no drug. Results were expressed as percent inhibition versus compound concentration and graphed, as shown in FIGS. 19-25, for cell lines BxPC-3, MV-4;11, HepG2, RS-4;11, HT-29, NUGC-4, and PC-3, respectively.

[2] = system: Hep G2; test: MTT Cell Proliferation Assay, Hep G2; format: cell-based, human; conditions: 120 hours of exposure
Text: as §1, §2

[3] = system: ZDF fa/fa rats; test: Oral glucose tolerance test in ZDF fa/fa rats, single dose of 5F12G1; format: in vivo, rat; conditions: single s.c. administration 1.0, 0.2 and 0.04 mg/kg
Experimental: This Example describes evaluation of oral glucose tolerance in Zucker Diabetic fatty (ZDF fa/fa) rats treated with 5F12G1 monoclonal antibody. Male ZDF fa/fa rats (Charles River) were maintained on a Harlan Tekled diet with Arrowhead drinking water ad libitum and allowed to acclimatize for one week. Six animals per group were treated according to the following treatment groups: 1, sterile PBS (vehicle control); 2, 1.0 mg/kg murine monoclonal antibody (mAb) 5F12G1 (VH comprising SEQ ID NO:1, VL comprising SEQ ID NO:2); 3, 0.2 mg/kg mAb 5F12G1; 4, 0.04 mg/kg mAb 5F12G1.
Oral Glucose Tolerance Test. The Oral Glucose Tolerance Test (OGTT) was performed on overnight fasted (16 hours) rats. Vehicle control (PBS) or 5F12G1 monoclonal antibody was administered subcutaneously thirty minutes prior to glucose loading. D-glucose was prepared in distilled water and administered orally at 2 g/kg body weight.
At multiple time points (0, 15, 30, 60, 90 and 120 minutes) blood samples of approximately 50 μl each were collected and processed to isolate the plasma. The plasma samples were analyzed for insulin by an ELISA method using an ultra sensitive mouse insulin ELISA kit (Crystal Chem, Inc., Downers Grove, Ill.). ELISA data were compiled and used to calculate the mean±standard error (SEM) with Microsoft Excel or GraphPad Prism version 5.00 for Windows (GraphPad Software, San Diego Calif. USA).

[4] = system: ZDF fa/fa rats; test: 21-day ZDF fa/fa study: glycated hemoglobin HbA1c; format: in vivo, rat; conditions: day 21
Experimental: Animals. Male ZDF fa/fa rats were obtained from CRL (Kingston, N.Y.). Upon arrival, rats were seven weeks of age. The rats were housed individually per cage in a room with a photo cycle of 12 hours of light and 12 hours of dark and an ambient temperature of 70-72° F. and fed on regular rodent diet and water ad libitum. At the age of eleven weeks, rats were divided into six groups (Table 5) of eight rats per group based on fasting blood glucose levels. A sub-group of four rats per group was maintained in parallel to the main groups and was dosed similarly for twenty-one days for a hyperinsulinemic-euglycemic clamp study. […]
An oral glucose tolerance test (OGTT) was performed on Day 0, 7, 14 and 21 for each group of the study. Plasma samples were collected at each time point during OGTT to also measure insulin levels. Body weight, food and water intake were measured twice a week. Blood pressure and heart rates were monitored on Day 0, 7, 14 and 21 using a non-invasive tail cuff method (with five readings per rat taken and then averaged). Fasting serum samples were collected on Day 0, 7, 14 and 21 before OGTT for determination of triglyceride and total cholesterol level. Urine samples were collected on Day 7 and 14 for the determination of glycosuria. Glycated (Glycosylated) hemoglobin (HbA1c) was measured at the end of the study. Assay kits for these studies were as presented in Table 6, and were used according to the suppliers' instructions.
The mean change in fasting blood glucose (mg/dL), serum cholesterol (mg/dL) and systolic blood pressure (mm Hg) from baseline ([…]) and negative control (MG2b-57, 0.2 mg/kg) groups using an analysis of covariance to adjust for baseline levels. […] A significance level of a=0.05 was used for all tests, and all analyses were conducted using SAS statistical software (vs. 9.2, Cary, N.C., U.S.A.).

B1: 5F12G1: murine monoclonal anti-BKB2R antibody (IgG2b,κ), VH comprising SEQ ID NO:1, VL comprising SEQ ID NO:2 (antibody, listed as Mus musculus, V domains shown)
VH: EVKLEESGGGLVQPGGSMKLSCVVSGFTFSDYWMSWVRHSPEMGLEWVAEIRLKSDNYATHYAESVKGRFTISRDDSKSRLYLQINSLRGEDTGIYYCTRDYYAMEYWGQGTSVTVSS
VL: DVVMTQTPLSLPVSLGDQASISCRSSQTIVHSNGKTYLEWYLQKPGQSPKLLIYKVSNRFSGVPDRFSGSGSGTEFTLKISRVETEDLGVYYCFQASHVPYTFGGGTKLEIK
With B1 the “EC 50 Values (ng/ml) BxPC-3” value [1] was 23000 ng/mL, the “EC 50 Values (ng/ml) Hep G2” value [2] was 21000 ng/mL and the “insulin activity in OGTT” value [3] was “dose dependently increased insulin activity”. For the same molecule, the “area under curve (AUC) of blood glucose concentration after oral loading of glucose, compared to vehicle control” value ([3]; 30 min before glucose 2 g/kg) was “decreased”, the “percent glycosylated hemoglobin A1c (HbA1c)” value ([4]; 0.2 mg/kg s.c. every 3 days (high dose)) was 6.3+/−0.5% and the “difference in percent HbA1c between the high dose and negative control animals” value ([4]; 0.2 mg/kg s.c. every 3 days vs MG2b-57 0.2 mg/kg) was −2.58+/−0.85%.
